# Test results: US20170240592A1, “GADD45BETA/MKK7 INHIBITOR FOR THE TREATMENT OF A RESISTANT HAEMATOLOGICAL MALIGNANCY” (IMPERIAL INNOVATIONS LIMITED, priority 2014, published 2017)
# Square brackets hold non-standard residues; d marks the D form. * marks the point of attachment. Cbz = O=C(OCc1ccccc1)*
# Legend:
# KMS-12 cells = experiment: [3H]thymidine incorporation assay, DTP3 and bortezomib as single agents or in combination, KMS-12; details: Homo sapiens, 48 h, read-out: IC50 value as single agent
# Description: (§2) Treatments with DTP3 were for 6 days; bortezomib was added to the cell cultures 48 hr prior to the measurement of cell viability. For the combination treatment, DTP3 was used at the concentrations of 3 nM in U266 cells and of 10 nM in KMS-12 cells, whereas bortezomib was used at increasing concentrations, as shown.
# Viability data from the experiment shown in FIG. 12 were converted into values representing the fraction of cells affected (FA) equaling 0.5 in the drug-treated cultures compared with untreated cultures, and the interaction of DTP3 with bortezomib was analysed according to the Chou-Talalay method (Chou, 2006). Also shown are the drug concentrations giving the FA value of 0.5 and the description of the CI. Based on the Chou-Talalay equation (Chou, 2006), synergy is present when the CI is less than 1.0 (where values between 0.3 and 0.7 denote synergism, and values between 0.1 and 0.3 denote strong synergism); the combination is additive when CI equals 1.0, and antagonistic when it is more than 1.0 (Chou, 2006).
# (§3) [^3H]Thymidine incorporation assays were performed using standard protocols (Griffiths and Sundaram, 2011). […] At 24, 72 or 144 hr, cells were incubated for an additional 16 hr with 0.037 MBq/well of [^3H]thymidine (Amersham), and then harvested onto glass fibre filter mats using a 96-well plate automated Tomtec cell harvester (Receptor Technologies) and analysed by liquid scintillation spectroscopy with a LKB Wallac Trilux Microbeta 3 b-counter (PerkinElmer). Values were expressed as the percentage of the counts per minute (cpm) measured in the treated cultures relative to the cpm measured in the respective untreated cultures. […]
# The activities of DTP3 and bortezomib in the U266 and KMS-12 myeloma cell lines, both as single agents and in combination, were determined using [^3H]thymidine incorporation assays, performed as described above in “Cell Proliferation, Cell Death, and Apoptosis Assays”. The IC50 values of bortezomib as single agent were determined at 48 hr using 9 concentrations of drug, ranging from 0.1 to 1,000 nM.
# U266 cells = experiment: [3H]thymidine incorporation assay, DTP3 and bortezomib as single agents or in combination, U266; details: Homo sapiens, U-266, 48 h, read-out: IC50 value as single agent
# Description: as §2
# Viability data from the experiment shown in FIG. 12 were converted into values representing the fraction of cells affected (FA) equaling 0.5 in the drug-treated cultures compared with untreated cultures, and the interaction of DTP3 with bortezomib was analysed according to the Chou-Talalay method (Chou, 2006). Also shown are the drug concentrations giving the FA value of 0.5 and the description of the CI. […]
# as §3
# [1] = system: diffuse large B-cell lymphoma (DLBCL) cell lines; experiment: PI nuclear staining assay, apoptotic cells in DLBCL cell lines; type: cell-based, human; details: 6 days; sensitive and insensitive DLBCL cell lines; baseline level
# Description: Current treatment of diffuse large B-cell lymphoma typically involves treatment with combination therapy, such as cyclophosphamide, doxorubicin, vincristine and prednisone (CHOP), or rituximab, cyclophosphamide, doxorubicin, vincristine and prednisone (R-CHOP). With those current treatments, many patients relapse and/or develop drug resistance at some point. The potential of the Gadd45β/MKK7 inhibitor DTP3 to operate in these settings was evaluated, by determining levels of apoptosis in diffuse large B-cell lymphoma cell lines known to be resistant to current therapies (HT, SU-DHL-8, U-2932, RC-K8 and RIVA, see for example Kaneko et al, Clinical Cancer Research, 2014, 20, p 1814-1820; Naylor et al, Cancer Research, 2011, Volume 71, p 2643-2653; Lyu et al, Cancer Research, 2013, Volume 73, Issue 8, Supplement 1), following treatment of those cells with DTP3. These cells have CARD11, A20 and/or MYD88 mutations and are also known to be resistant to agents such as Bruton's tyrosine kinase inhibitors, spleen tyrosine kinase inhibitors, PI3K inhibitors and/or protein kinase C inhibitors.
# The percentages of apoptotic cells are depicted.
# A comparison was made between the ability of DTP3 to kill various DLBCL cell lines by apoptosis in vitro. Cell lines HT, SU-DHL-8, U-2932 and RC-K8 which are known to be sensitive to DTP3; and insensitive cell lines RI-1, NU-DUL-1, TMD8, and HBL1 were used. Cell death was assessed using a standard propidium iodide (PI) nuclear staining assay followed by flow cytometry whereby the proportion of cells with a sub G1-DNA content was measured after cells had been exposed to DTP3 for 6 days at 10 μM. As controls, further populations of cells were left untreated (UT) or were treated with a scrambled D-tripeptide (SCR) for 6 days.
# Apoptosis analyses were performed using propidium iodide (PI) nuclear labelling, as described previously (Riccardi and Nicoletti, 2006). Briefly, cells were seeded at a density of 2×10^5 cells/well into wells of either 24- or 48-well plates and cultured in the presence or absence of treatment, as shown. Cells were then fixed in 70% ice-cold ethanol for 16 hr, washed in PBS, and treated with ribonuclease A (50 μg/mL) for 30 min at room temperature. Samples were finally stained with PI (50 μg/mL) in 0.1% sodium citrate buffer for 2 to 4 hr at 4° C. in the dark, and data were acquired using a FACSCalibur automated system (Becton Dickinson) and analysed with FlowJo.
# Gadd45β/MKK7 complex = biological target: T1, Gadd45β/MKK7 complex (Homo sapiens, UniProt O14733); experiment: co-immunoprecipitation assay; type: binding; details: anti-FLAG immunoprecipitates, HEK-293T lysates
# T1 construct: expressed in transfected cells; host or cells: human HEK-293T
# T1 sequence (O14733 1-419): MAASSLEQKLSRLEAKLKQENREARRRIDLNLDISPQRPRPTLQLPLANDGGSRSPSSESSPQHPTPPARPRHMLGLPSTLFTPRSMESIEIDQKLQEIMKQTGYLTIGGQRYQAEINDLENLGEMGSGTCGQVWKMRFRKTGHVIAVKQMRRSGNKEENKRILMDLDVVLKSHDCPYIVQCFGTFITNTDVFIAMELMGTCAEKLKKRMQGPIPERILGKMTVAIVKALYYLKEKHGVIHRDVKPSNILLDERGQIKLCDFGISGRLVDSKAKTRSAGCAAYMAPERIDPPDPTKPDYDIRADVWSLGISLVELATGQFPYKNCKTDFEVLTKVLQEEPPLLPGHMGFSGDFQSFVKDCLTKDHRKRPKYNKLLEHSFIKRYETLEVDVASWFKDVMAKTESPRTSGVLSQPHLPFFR
# Description: (§1) Values express the percentage of live cells present in the treated cultures relative to the live cells present in the respective untreated cultures and denote means±SD ([WM]; n=3). UT, untreated. […] Values express the percentage of inhibition of Gadd45β binding to MKK7 relative to the binding measured in the absence of peptide. […] Co-immunoprecipitations (IP) were performed using an anti-FLAG antibody (a-FLAG); western blots (WB) were developed using an anti-HA or an anti-MKK7 antibody, as shown.
# Co-immunoprecipitation assays were performed as described previously (Papa et al., 2004). Briefly, human HEK-293T cells were seeded at a density of 1.8-2.2×10^6 cells/dish in […] tissue-culture dishes and then transfected with pcDNA-FLAG-hMKK7 and pcDNA-HA-hGADD45β by using the calcium phosphate precipitation method (Papa et al., 2004). 48 hr after transfection, cells were washed with PBS and then lysed in lysis buffer supplemented with protease inhibitors (1 mM phenylmethylsulfonylfluoride, 10 μM chymostatin, 2 μg/mL aprotinin, 2 μg/mL leupeptin; Roche) for 30 min in ice. Cell lysates were cleared by centrifugation at 45,000×g for 40 min and then used for co-immunoprecipitations with anti-FLAG M2 Affinity Gel (Sigma-Aldrich), binding to FLAG-tagged MKK7. Western blots were developed using an anti-HA (binding to HA-hGADD45β) or an anti-MKK7 antibody. […]
# [2] = biological target: GST-MKK7 (full-length human MKK7 fused to an N-terminal GST tag) (human) (UniProt O14733); experiment: ELISA Gadd45β/MKK7 competition; after 48-hr pre-incubation with human serum at 37 C
# [3] = biological target: GST-MKK7 (full-length human MKK7 fused to an N-terminal GST tag) (human) (UniProt O14733); experiment: ELISA Gadd45β/MKK7 competition; without serum pre-incubation
# [4] = biological target: GST-MKK7 (full-length human MKK7 fused to an N-terminal GST tag) (human) (UniProt O14733); experiment: ELISA Gadd45β/MKK7 competition (summary sentence on FIGS. 4 to 8)
# [5] = system: multiple myeloma cell lines; experiment: [3H]thymidine incorporation assay, survival of multiple myeloma cell lines; type: cell-based, human; details: for cytotoxic activity in multiple myeloma cell lines: 6-day treatment, all lines tested apart from RPMI-8226 and KMM-1; for IC50 values in the sensitive multiple myeloma cell lines: 144 hr, sensitive (Gadd45β-dependent) cell lines
# Description: as §1
# [^3H]Thymidine incorporation and trypan blue exclusion assays were performed using standard methods (Mauro et al., 2011). […] Apoptosis analyses were performed using PI staining as described in Mauro et al., 2011. Additional details are provided in the Supplemental Experimental Procedures.
# [6] = mouse, in vivo
# Description: In vitro pharmacokinetic assays were performed according to established, in-house protocols and included: plasma stability (human), thermodynamic solubility (PBS pH 7.4, at 37° C. for 14 days), microsomal stability (human), plasma protein binding (PPB; mouse and human), and distribution coefficient (Log D). In vivo pharmacokinetic analyses were also performed at Cyprotex according to established, in-house protocols. Briefly, the peptides were dissolved in PBS and administered by single intravenous injection to CD1 male mice at the dose of 10 mg/kg (25-30 g of total body weight; n=3 mice per time point per compound). Blood samples were collected in heparinized tubes at up to 7 time points after this injection (i.e. 0.08, 0.25, 0.5, 1, 2, 4 and 8 hr), and the plasma concentrations of the test peptide were determined at each time point by LC-MS/MS, using a five-point standard curve covering a peptide concentration range from 3 to 3,000 ng/mL. Standard curves were prepared using blank plasma matrices and treated in the same manner as the test samples. […] Values were calculated from the data of the peptide plasma concentration versus time curves using a non-compartmental model analysis, as described elsewhere (Groulx, 2006; Landaw and Di Stefano 3rd, 1982). The doses of z-DTP2 and DTP3 predicted to achieve the therapeutic plasma concentration of 1 μM at the steady state were calculated from the measured pharmacokinetic values using the following equation: k0=k1×Vd×Cp (where Vd is expressed in L/kg; Cp is the plasma concentration at the steady state expressed in mg/L; k0 is the zero order input expressed in mg/kg/hr; k1 is the first order elimination constant [0.693/t1/2]).
compound,measurement,setting,value
"CC(C)C[C@H](NC(=O)[C@H](Cc1ccccc1)NC(=O)c1cnccn1)B(O)O [bortezomib, reference compound]",IC50,KMS-12 cells,6 nM
same,IC50,U266 cells,6 nM
"Ac-Arg-Phe-Tyr-NH2 (Ac-[dR]-[dF]-[dY]-NH2) [SCRB, scrambled control D-tripeptide, reference compound]",percentage of apoptotic cells,[1],no more than 27.2%
same,disruption of the Gadd45β/MKK7 complex,Gadd45β/MKK7 complex,not
"DTP3 (Acetyl-Tyr-Arg-Phe-NH2, all residues in the D configuration)",IC50,[2],0.13 nM
same,IC50,[3],0.16 nM
"DTP3 (Acetyl-Tyr-Arg-Phe-NH2, all residues in the D configuration) (peptide)",IC50,[4],< 1 nM
"tetrapeptide Tyr-Asp-His-Phe, D-configuration, NH2 group at the C terminal, benzyloxycarbonyl group at the N terminal (Cbz-[dY][dD][dH][dF]-NH2) [z-DTP1]",cytotoxic activity in multiple myeloma cell lines,[5],potent and dose-dependent toxicity
same,IC50 values in the sensitive multiple myeloma cell lines,[5],low nM to low μM
"tetrapeptide Tyr-Glu-Arg-Phe, D configuration, NH2 group at the C terminal, benzyloxycarbonyl group at the N terminal (Cbz-[dY][dE][dR][dF]-NH2) [z-DTP2]",cytotoxic activity in multiple myeloma cell lines,[5],potent and dose-dependent toxicity
same,IC50 values in the sensitive multiple myeloma cell lines,[5],low nM to low μM
same,predicted dose required to achieve the therapeutic plasma concentration of 1 μM at the steady state (k0),[6],3.61 mg/kg/h
